Source: the Human Domainome abundance scans (Beltran et al. 2025)

B1: Ankyrin-3, residues 4094 to 4171; numbered along this chain, Q12955 (parent)
chain: MAIVADHLGLSWTELARELNFSVDEINQIRVENPNSLISQSFMLLKKWVTRDGKNATTDALTSVLTKINRIDIVTLLE

Variants of: B1
Assay: abundance fitness (aPCA) (normalised: wild type 0, dead -1); higher = more abundant; growth selection in yeast, the domain comes from the species named
Conditions: Homo sapiens

Abundance fitness of substitutions, site by site:
I38: Q -0.133 | W -0.039 | P -0.041 | H -0.167 | G -0.006 | N 0.234 | S 0.078 | L -0.183 | K 0.05 | M 0.009 | V 0.027 | R 0.089 | T -0.122
L44: H -0.75 | P -0.867 | A -0.391 | S -0.914 | W -0.806 | M -0.074 | G -0.93 | D -0.695 | Y -0.693 | E -0.902 | I -0.371 | C -0.116 | V -0.171 | T -0.561 | R -0.796 | Q -0.784
V49: R 0.024 | E 0.087 | G -0.168 | M -0.082 | S -0.034 | F -0.154 | L -0.058 | T -0.115 | A 0.022 | N 0.057 | P -1.02 | K -0.093 | Y 0.021 | W -0.361 | I -0.041 | D -0.392 | Q 0.07 | C -0.095
D52: L -0.89 | F -0.748 | Y -0.717 | Q -0.359 | W -0.874 | K -0.358 | V -0.575 | I -0.255 | N -0.687 | H -0.577 | C -0.549 | P -0.767 | G -0.625 | T -0.607 | E -0.025 | S -0.589 | A -0.274
G53: Q -0.065 | C -0.545 | K -0.145 | Y -0.962 | R -0.367 | W -0.849 | E -0.111 | L -0.832 | T -0.521 | M -0.772 | S -0.325 | H -0.3 | F -0.728 | D -0.578 | A -0.457 | P -0.149 | V -0.672
N55: F -0.15 | H -0.058 | C -0.157 | E -0.079 | R -0.073 | M -0.047 | T -0.115 | V -0.114 | S -0.021 | P -0.603 | Q 0.011 | L -0.004 | D 0.066 | G 0.057 | A 0.007 | Y -0.041 | W -0.135
T57: Q -0.298 | I -0.779 | Y -0.14 | P -0.896 | M -0.394 | D -0.108 | N 0.079 | E -0.859 | W -0.931 | H -0.176 | K -0.739 | A -0.195 | V -0.124 | R -0.548 | L -0.798 | F -0.39 | S -0.117 | G -0.387
K54: Q -0.054 | Y -0.147 | I 0.065 | W -0.21 | A -0.019 | V 0.038 | N -0.316 | P -0.107 | H 0.037 | R -0.064 | C -0.088 | E -0.132 | M -0.1 | T -0.121 | D -0.233 | F -0.156 | S 0.049 | L -0.051
Q40: Y -0.672 | F -0.74 | P -0.646 | I -0.663 | H -0.622 | W -0.736 | T -0.725 | L -0.833 | V -0.894 | S -0.312 | N -1.03 | K -0.35 | R -0.407 | D -0.726 | G -0.74 | C -0.127 | A -0.064
K47: F -0.138 | P -0.956 | S -0.068 | V -0.487 | G -0.31 | H -0.11 | L -0.099 | Y -0.39 | C -0.369 | E -0.235 | W -0.124 | Q -0.19 | D -0.177 | T -0.149 | M -0.005 | N -0.033
L45: R -0.865 | A -0.862 | S -0.881 | M -0.193 | C -0.444 | H -0.449 | I -0.302 | E -0.851 | W -0.862 | G -0.906 | P -0.92 | V -0.603 | Q -0.833
F42: T 0.086 | H 0.119 | L -0.063 | Q 0.074 | Y 0.023 | G 0.113 | A 0.043 | R 0.188 | I -0.03 | W 0.022 | K 0.201 | D 0.165 | S 0.174 | N 0.104 | V 0.042 | M 0.102
S41: V -0.851 | E -0.912 | M -0.815 | I -0.74 | R -0.725 | Y -0.67 | F -0.815 | C -0.538 | G -0.047 | N -0.748 | P -0.972 | T -0.211 | A 0.032
W48: R -1 | C -0.868 | V -0.887 | T -0.876 | L -0.715 | M -0.635 | Q -0.808 | S -0.928 | I -0.83 | G -0.811 | H -0.752 | P -0.923
K46: G -0.337 | T -0.061 | P -0.915 | M -0.204 | R -0.018 | H -0.195 | E -0.013 | L -0.377 | F -0.762 | V -0.373 | Q 0.124 | Y -0.665 | S -0.024 | C -0.432 | I -0.581 | W -0.541 | N -0.044
S39: Q 0.087 | M -0.071 | K 0 | H -0.084 | L -0.184 | P -0.685 | C -0.011 | V -0.209 | N 0.142 | E -0.103 | G -0.048 | R 0.001 | W -0.47 | F -0.434 | D -0.013 | A 0.05 | Y -0.616 | T -0.016
M43: V -0.074 | T 0.033 | D 0.028 | C 0.1 | W -0.168 | G 0.02 | H 0.014 | S 0.005 | K -0.185 | E 0.056 | L -0.152 | R -0.128 | P -0.892 | I -0.431 | A 0.047 | F -0.265
T50: R -0.094 | I -0.18 | G 0.026 | N -0.204 | D 0.089 | E -0.008 | S -0.016 | A 0.097 | Y 0 | V -0.036 | K 0.098 | F -0.247 | W -0.065 | M 0.035 | H 0.051 | Q -0.024 | L 0.041 | P -1.02
T58: F -0.112 | P -0.195 | Q 0.034 | L -0.002 | N -0.168 | G -0.104 | A -0.051 | M 0.173 | D 0.086 | E -0.113 | R -0.067 | K 0.016 | H 0.001 | I 0.09
R51: P -0.77 | W -0.503 | Y -0.773 | V -0.789 | H -0.848 | D -0.637 | C -0.744 | A -0.78 | M -0.682 | T -1.02 | I -0.616 | Q -0.994 | K -0.531 | G -0.499 | L -0.829
A56: M -0.526 | I -0.298 | S -0.517 | G -0.613 | N -0.53 | T -0.517 | Y -0.353 | W -0.458 | K -0.175 | F -0.304 | H -0.296 | L -0.433 | R -0.506 | C -0.271 | V -0.037
